Measurements reported in US20200181605A1 (SHANGHAI INSTITUTES FOR BIOLOGICAL SCIENCES CHINESE ACADEMY …, published 2020).

Molecular target: T1, endogenous Brd4 protein of untargeted androgenetic haploid embryonic stem cells (NC) (mouse, UniProt Q9ESU6 1-1400, limits assumed)
T1 construct: Endogenous, untagged; a mixture of the large and small isoforms in the cell lysate; also called Brd4 large protein (about 250 kDa); Brd4 small protein (110/120 kDa)
Test: Co-IP with Brd4 antibody-coupled beads, western blot

binding result: binds
B1: CDK9 (enzyme, UniProt Q99J95 1-372, looked up)
chain: MAKQYDSVECPFCDEVTKYEKLAKIGQGTFGEVFKAKHRQTGQKVALKKVLMENEKEGFPITALREIKILQLLKHENVVNLIEICRTKASPYNRCKGSIYLVFDFCEHDLAGLLSNVLVKFTLSEIKRVMQMLLNGLYYIHRNKILHRDMKAANVLITRDGVLKLADFGLARAFSLAKNSQPNRYTNRVVTLWYRPPELLLGERDYGPPIDLWGAGCIMAEMWTRSPIMQGNTEQHQLALISQLCGSITPEVWPNVDKYELFEKLELVKGQKRKVKDRLKAYVRDPYALDLIDKLLVLDPAQRIDSDDALNHDFFWSDPMPSDLKGMLSTHLTSMFEYLAPPRRKGSQITQQSTNQSRNPATTNQTEFERVF
notes: Endogenous protein co-precipitated from mouse ES cell lysate
